From the array DNA melting data of Ke et al.

Assay: melting temperature; UV melt of duplexes

Substance: TTATGTATTAAGTTATATAGTAGTAGTAGT+ACTACTACTACTATATAACTTAATACATAA ((((((((((((((((((((((((((((((+))))))))))))))))))))))))))))))
- Tm (sodium 0.07 M, strand 2 µM): 50.7 °C
- Tm (sodium 0.12 M, strand 2 µM): 55 °C
- Tm (sodium 0.22 M, strand 2 µM): 59.3 °C
- Tm (sodium 0.62 M, strand 2 µM): 65.1 °C
- Tm (sodium 1.02 M, strand 2 µM): 66.6 °C

Substance: AAAGGTGTCGCGGAGAGTCGTGCTG+CAGCACGACTCTCCGCGACACCTTT (((((((((((((((((((((((((+)))))))))))))))))))))))))
- Tm (sodium 0.07 M, strand 2 µM): 69.6 °C
- Tm (sodium 0.12 M, strand 2 µM): 73.6 °C
- Tm (sodium 0.22 M, strand 2 µM): 77.4 °C
- Tm (sodium 0.62 M, strand 2 µM): 81.2 °C
- Tm (sodium 1.02 M, strand 2 µM): 82.4 °C

Substance: TATGTATATTTTGTAATCAG+CTGATTACAAAATATACATA ((((((((((((((((((((+))))))))))))))))))))
- Tm (sodium 0.07 M, strand 2 µM): 44.4 °C
- Tm (sodium 0.12 M, strand 2 µM): 47.7 °C
- Tm (sodium 0.22 M, strand 2 µM): 52.6 °C
- Tm (sodium 0.62 M, strand 2 µM): 57.6 °C
- Tm (sodium 1.02 M, strand 2 µM): 61.2 °C

Substance: CTTAAGATATGAGAACTTCAACTAATGTGT+ACACATTAGTTGAAGTTCTCATATCTTAAG ((((((((((((((((((((((((((((((+))))))))))))))))))))))))))))))
- Tm (sodium 0.07 M, strand 2 µM): 56.8 °C
- Tm (sodium 0.12 M, strand 2 µM): 61.3 °C
- Tm (sodium 0.22 M, strand 2 µM): 64.9 °C
- Tm (sodium 0.62 M, strand 2 µM): 70.5 °C
- Tm (sodium 1.02 M, strand 2 µM): 71.8 °C

Substance: CAGTGGGCTCCTGGGCGTGCTGGTC+GACCAGCACGCCCAGGAGCCCACTG (((((((((((((((((((((((((+)))))))))))))))))))))))))
- Tm (sodium 0.07 M, strand 2 µM): 72 °C
- Tm (sodium 0.12 M, strand 2 µM): 75.6 °C
- Tm (sodium 0.22 M, strand 2 µM): 79.2 °C
- Tm (sodium 0.62 M, strand 2 µM): 82.6 °C
- Tm (sodium 1.02 M, strand 2 µM): 83.4 °C

Substance: TAGTGGCGATTAGATTCTGC+GCAGAATCTAATCGCCACTA ((((((((((((((((((((+))))))))))))))))))))
- Tm (sodium 0.07 M, strand 2 µM): 57 °C
- Tm (sodium 0.12 M, strand 2 µM): 60.6 °C
- Tm (sodium 0.22 M, strand 2 µM): 64.8 °C
- Tm (sodium 0.62 M, strand 2 µM): 69.1 °C
- Tm (sodium 1.02 M, strand 2 µM): 71.2 °C

Substance: AAATATAAGAATTCTTATATTT+AAATATAAGAATTCTTATATTT ((((((((((((((((((((((+))))))))))))))))))))))
- Tm (sodium 0.12 M, strand 7 µM): 48.9 °C
